Paper PMC9970071

Legend:
[1] = molecular target: Full-length TBEV C protein (residues 1-96), Kuutsalo-14 strain (tick-borne encephalitis virus (TBEV-Eu), strain Kuutsalo-14); assay: SEC
[2] = molecular target: Truncated TBEV C protein C_(18-93), containing residues 18-93, Kuutsalo-14 strain (tick-borne encephalitis virus (TBEV-Eu), strain Kuutsalo-14); assay: SEC

Substance	stoichiometry N [1]	stoichiometry N [2]
Full-length TBEV C protein (residues 1-96), Kuutsalo-14 strain (natural protein)	2	–
Truncated TBEV C protein C_(18-93), containing residues 18-93, Kuutsalo-14 strain (domain or fragment)	–	2
